Data set [1] deals with T1, cytokine receptor common gamma chain (γc), wild type.
T1 chain: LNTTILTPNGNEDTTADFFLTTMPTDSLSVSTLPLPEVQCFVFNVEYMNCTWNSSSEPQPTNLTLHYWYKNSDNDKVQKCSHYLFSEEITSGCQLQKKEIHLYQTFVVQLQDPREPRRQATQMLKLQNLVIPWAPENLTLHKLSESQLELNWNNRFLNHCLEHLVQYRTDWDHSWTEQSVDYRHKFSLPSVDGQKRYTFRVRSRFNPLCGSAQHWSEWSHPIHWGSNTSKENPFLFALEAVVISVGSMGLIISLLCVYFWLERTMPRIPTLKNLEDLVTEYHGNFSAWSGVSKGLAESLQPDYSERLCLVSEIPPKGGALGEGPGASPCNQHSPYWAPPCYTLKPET

Data set [2] addresses T2, cytokine receptor common gamma chain (γc), wild type (human, UniProt P31785 23-369).
T2 construct: also called WT γc; gc
T2 sequence: T1 chain
Description: co-immunoprecipitation from 293T lysates; anti-FLAG M2 IP of FLAG-tagged Jak3, blot for γc. On the procedure: (§1) Lysates were centrifuged at 12,000×g, and NaCl was added to 500 mM final concentration. Lysates were immunoprecipitated with the appropriate antibody. Rabbit polyclonal, mouse monoclonal (M2), and Sepharose-conjugated M2 anti-FLAG antibodies were purchased from Kodak Scientific Imaging Systems (Rochester, N.Y.), Goat anti-γ_c antibody was purchased from R&D (Minneapolis, Minn.). Lysates were boiled, and subjected to 8% SDS-PAGE or 12% SDS-PAGE for experiments with Jak3 fragments, and electrotransferred onto […] membranes (Immobilon-P, Millipore, Bradford, Mass.). Membranes were probed with one of the following antibodies: Mouse monoclonal M2 anti-FLAG antibody, rabbit polyclonal anti-γ_c antibody, or mouse monoclonal anti-Myc tag antibody 9E10 (Santa Cruz Biotechnology, Santa Cruz, Calif.). For the immunoprecipitation with EBV-transformed B cell lines and the IL-2R expressing fibroblasts, cells were lysed as described above, except with a final NaCl concentration of 150 mM. Lysates were immunoprecipitated with monoclonal (M2) anti-FLAG antibody, rabbit polyclonal antibody directed against the C-terminus of Jak3 (α-Jak3; Kawamura, et al. (1994) *Proc Nat'l Acad Sci USA* 91:6374–8) or rabbit polyclonal antibody specific for STAT5b (Santa Cruz Biotechnology, Santa Cruz, Calif.). Immunoprecipitates were then washed, boiled, and resolved using SDS-PAGE. […]

Data set [3] deals with T2, cytokine receptor common gamma chain …. As to the kind of experiment: co-immunoprecipitation (summary of the combined results).
For data set [4] the target is unchanged. Description: co-immunoprecipitation, 293T cells.
The test system of data set [5] is T3, cytokine receptor common gamma chain (γc), wild type.
T3 sequence: T1 chain
The source holds these as a separate data set.

The target in data set [6] is T2, cytokine receptor common gamma chain …. Description: co-immunoprecipitation from 293T lysates; γc precipitated, blot for the epitope-tagged Jak3 fragment. On the procedure:
as §1

Substitutions are numbered along the chain they refer to. Names and notes keep the numbering of the source. Read-outs that look alike come from different tables or passages of the source.

B1: wild-type Jak3 (protein)
chain: MAPPSEETPLIPQRSCSLLSTEAGALHVLLPARAPGPPQRLSFSFGDHLAEDLCVQAAKASGILPVYHSLFALATEDLSCWFPPSHIFSVEDASTQVLLYRIRFYFPNWFGLEKCHRFGLRKDLASAILDLPVLEHLFAQHRSDLVSGRLPVGLSLKEQGECLSLAVLDLARMAREQAQRPGELLKTVSYKACLPPSLRDLIQGLSFVTRRAIRRTVRRALPRVAACQADRHSLMAKYIMDLERLDPAGAAETFHVGLPGALGGHDGLGLLRVAGDGGIAWTQGEQEVLQPFCDFPEIVDISIKQAPRVGPAGEHRLVTVTRTDNQILEAEFPGLPEALSFVALVDGYFRLTTDSQHFFCKEVAPPRLLEEVAEQCHGPITLDFAINKLKTGGSRPGSYVLRRSPQDFDSFLLTVCVQNPLGPDYKGCLIRRSPTGTFLLVGLSRPHSSLRELLATCWDGGLHVDGVAVTLTSCCIPRPKEKSNLIVVQRGHSPPTSSLVQPQSQYQLSQMTFHKIPADSLEWHENLGHGSFTKIYRGCRHEVVDGEARKTEVLLKVMDAKHKNCMESFLEAASLMSQVSYRHLVLLHGVCMAGDSTMVQEFVHLGAIDMYLRKRGHLVPASWKLQVVKQLAYALNYLEDKGLPHGNVSARKVLLAREGADGSPPFIKLSDPGVSPAVLSLEMLTDRIPWVAPECLREAQTLSLEADKWGFGATVWEVFSGVTMPISALDPAKKLQFYEDRQQLPAPKWTELALLIQQCMAYEPVQRPSFRAVIRDLNSLISSDYELLSDPTPGALAPRDGLWNGAQLYACQDPTIFEERHLKYISQLGKGNFGSVELCRYDPLAHNTGALVAVKQLQHSGPDQQRDFQREIQILKALHSDFIVKYRGVSYGPGRPELRLVMEYLPSGCLRDFLQRHRARLDASRLLLYSSQICKGMEYLGSRRCVHRDLAARNILVESEAHVKIADFGLAKLLPLDKDYYVVREPGQSPIFWYAPESLSDNIFSRQSDVWSFGVVLYELFTYCDKSCSPSAEFLRMMGCERDVPALCRLLELLEEGQRLPAPPACPAEVHELMKLCWAPSPQDRPSFSALGPQLDMLWSGSRGCETHAFTAHPEGKHHSLSFS
B1: in data set [1], the “IL-2 induced tyrosine phosphorylation of Jak3 in IL-2R+ fibroblasts” value was “Jak3 was rapidly tyrosine phosphorylated and associated with the IL-2 receptor complex”; the “IL-2 induced tyrosine phosphorylation of STAT5b in IL-2R+ fibroblasts” value was “Cells expressing wild type Jak3 (WT) exhibited tyrosine phosphorylation of STAT5b”.

B2: Jak3 Y100C/Y105F double mutant (enzyme)
chain: B1 chain with Y100C, Y105F
notes: not shown: C-terminal FLAG tag (single copy) joined through a ClaI site
Regarding B2, the binding result in data set [2] is given as “no binding”.

B3: Jak3 Y100C (enzyme)
chain: B1 chain with Y100C
notes: also called Y100C mutant; patient mutant; not shown: C-terminal FLAG tag (single copy) joined through a ClaI site
Turning to B3, the “IL-2 induced tyrosine phosphorylation of Jak3 in IL-2R+ fibroblasts” value in data set [1] is “no IL-2-induced phosphorylation of Jak3 Y100C was observed”. Further, the binding result in data set [2] is given as “no binding”.

B4: Jak3 L98A (enzyme)
chain: B1 chain with L98A
notes: also called Leucine 98A; not shown: C-terminal FLAG or Myc tag joined through a ClaI site
On to B4, for which the binding result in data set [3] is given as “no binding”.

B5: Jak3 Y100C/K855A (enzyme)
chain: B1 chain with Y100C, K855A
notes: also called J3 Y100C/K855A; not shown: C-terminal FLAG or Myc tag joined through a ClaI site
Regarding B5, the binding result in data set [4] is “no binding”.

B6: Jak3 I102A (enzyme)
chain: B1 chain with I102A
notes: not shown: C-terminal FLAG or Myc tag joined through a ClaI site
On to B6, for which the binding result in data set [3] was “no binding”.

B7: Jak3 Y100A mutant (enzyme)
chain: B1 chain with Y100A
notes: as for B6
In the case of B7, the binding result in data set [3] is “no binding”.

B8: Jak3/Jak1 chimera J3 1-130 (enzyme, part only; not given: Jak1 C-terminal part and tag)
chain, part: MAPPSEETPLIPQRSCSLLSTEAGALHVLLPARAPGPPQRLSFSFGDHLAEDLCVQAAKASGILPVYHSLFALATEDLSCWFPPSHIFSVEDASTQVLLYRIRFYFPNWFGLEKCHRFGLRKDLASAILD
Regarding B8, the “IL-2 induced tyrosine phosphorylation of STAT5b in IL-2R+ fibroblasts” value in data set [5] was “cells expressing the J3 1-130 chimera also failed to demonstrate STAT5b phosphorylation”.

B9: Jak3/Jak1 chimera J3 1-256 (enzyme, part only; not given: Jak1 C-terminal part and tag)
chain, part: MAPPSEETPLIPQRSCSLLSTEAGALHVLLPARAPGPPQRLSFSFGDHLAEDLCVQAAKASGILPVYHSLFALATEDLSCWFPPSHIFSVEDASTQVLLYRIRFYFPNWFGLEKCHRFGLRKDLASAILDLPVLEHLFAQHRSDLVSGRLPVGLSLKEQGECLSLAVLDLARMAREQAQRPGELLKTVSYKACLPPSLRDLIQGLSFVTRRAIRRTVRRALPRVAACQADRHSLMAKYIMDLERLDPAGAAETFHV
Consider B9, for which, in data set [5], the “IL-2 induced tyrosine phosphorylation of STAT5b in IL-2R+ fibroblasts” value is reported as “the J3 1-256 chimera (encoding both of the entire JH7/JH6 regions) responded to IL-2 stimulation by tyrosine phosphorylating STAT5b”; the “IL-2 induced tyrosine phosphorylation of the chimera in IL-2R+ fibroblasts” value is “The smallest region of a chimeric Jak3/Jak1 which reconstituted IL-2-induced tyrosine phosphorylation was a region that contained both of the entire JH7 and JH6 domains”; the “phosphorylation of IL-2Rβ after IL-2 in IL-2R+ fibroblasts” value is “it was only detected in cell lines that expressed Jak3/Jak1 chimeras having the entire JH7 and JH6 domains”.

B10: Jak3 fragment J3 1-109 (other, not shown: small tags and cut ends)
chain: MAPPSEETPLIPQRSCSLLSTEAGALHVLLPARAPGPPQRLSFSFGDHLAEDLCVQAAKASGILPVYHSLFALATEDLSCWFPPSHIFSVEDASTQVLLYRIRFYFPNW
As to B10, the binding result in data set [6] is listed as “no binding”.

These data come from patent US6372898 (SCHERING, dated 2002).
